# Values of other authors as cited in patent US20240409647A1, “BISPECIFIC BINDING PROTEINS AGAINST ALARMINS AND USES THEREOF” (SINOMAB BIOSCIENCE LIMITED, priority 2022, published 2024).
# B1: itepekimab: anti-IL-33 antibody (antibody, chains of the INN, looked up, V domains shown)
# VH: EVQLVESGGNLEQPGGSLRLSCTASGFTFSRSAMNWVRRAPGKGLEWVSGISGSGGRTYYADSVKGRFTISRDNSKNTLYLQMNSLSAEDTAAYYCAKDSYTTSWYGGMDVWGHGTTVTVSS
# VL: DIQMTQSPSSVSASVGDRVTITCRASQGIFSWLAWYQQKPGKAPKLLIYAASSLQSGVPSRFSGSGSGTDFTLTISSLQPEDFAIYYCQQANSVPITFGQGTRLEIK
# Details: patients who discontinued ICS and LABA, 12 weeks; placebo 41%
molecule,measurement,value
B1,rate of loss of asthma control,22%
